# Experimental data taken from patent publication US20170189510A1.
# Biological target: HLA-A*24 (human)
# Assay: UV-ligand exchange, anti-b2m ELISA
row,peptide exchange yield [%],Binder
1,50 to 75,YFIDSTNLKTHF [peptide SEQ ID No 269 …]
2,20 to 49,PYRLIFEKF [peptide SEQ ID No 281 …]
3,> 75,TYELRYFQI [peptide SEQ ID No 204 …]
4,50 to 75,YYGPSLFLL [peptide SEQ ID No 200 …]
5,50 to 75,YYKSTSSAF [peptide SEQ ID No 218 …]
6,50 to 75,HYPPVQVLF [peptide SEQ ID No 285 …]
7,50 to 75,NYYEVHKELF [peptide SEQ ID No 270 …]
8,> 75,VYWDSAGAAHF [peptide SEQ ID No 202 …]
9,50 to 75,LYITEPKTI [peptide SEQ ID No 287 …]
10,> 75,VYQGHTALL [peptide SEQ ID No 277 …]
11,50 to 75,QYLGQIQHI [peptide SEQ ID No 268 …]
12,50 to 75,TYKDEGNDYF [peptide SEQ ID No 209 …]
13,20 to 49,AYVVFVSTL [peptide SEQ ID No 207 …]
14,50 to 75,TFSVSSHLF [peptide SEQ ID No 222 …]
15,50 to 75,IYATEAHVF [peptide SEQ ID No 201 …]
16,50 to 75,RYAEEVGIF [peptide SEQ ID No 199 …]
